In publication PMC6096924, “Mechanism of activation of the BNLF2a immune evasion gene of Epstein-Barr virus by Zta”:

Tests used:
Conditions in all cases: protein: recombinant; tags: His, GST (fusion); chain copies: 2; label: IR-800; blunt
[1] = target: T1, His-GST-Zta (DNA binding and dimerization region) (Epstein-Barr virus, UniProt P03206 168-245); assay: EMSA
[2] = target: T1, His-GST-Zta (DNA binding and …); assay: EMSA; CpG methylation; binding increased vs unmethylated ZRE1 (P<=0.01)
[3] = target: T1, His-GST-Zta (DNA binding and …); assay: EMSA; highest binding of the five ZREs

T1 sequence (P03206 168-245): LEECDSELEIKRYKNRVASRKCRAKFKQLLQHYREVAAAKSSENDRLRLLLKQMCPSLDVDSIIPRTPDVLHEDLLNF

B1: BNLF2a ZRE1 (dsDNA)
DNA 1: ACACCTGTCCTCGCTCATCTTTCCACA
DNA 2: TGTGGAAAGATGAGCGAGGACAGGTGT
[1]
  binding result: binds

B2: BNLF2a ZRE1me (CpG-methylated) (dsDNA)
DNA 1: ACACCTGTCCTCGCTCATCTTTCCACA
DNA 2: TGTGGAAAGATGAGCGAGGACAGGTGT
modifications: 5-methyl-C (printed meC) at C12 of strand 1 and C15 of strand 2
[2]
  binding result: binds

B3: BNLF2a ZRE5 (dsDNA)
DNA 1: TAAGCTACTATGACTAACCTTTCTTTA
DNA 2: TAAAGAAAGGTTAGTCATAGTAGCTTA
[1]
  binding result: binds

B4: BNLF2a ZRE3 (dsDNA)
DNA 1: CTTTCCATCTTGTGCCAATACACATTT
DNA 2: AAATGTGTATTGGCACAAGATGGAAAG
[1]
  binding result: binds

B5: BNLF2a ZRE4 (dsDNA)
DNA 1: TCACCTTAACTGGCACACACTCCCTTA
DNA 2: TAAGGGAGTGTGTGCCAGTTAAGGTGA
[1]
  binding result: binds

B6: BNLF2a ZRE2 (dsDNA)
DNA 1: CACCTGTTGTTGACACATTCTTTGCGC
DNA 2: GCGCAAAGAATGTGTCAACAACAGGTG
[3]
  binding result: binds
